Reference: US20080207501A1

Target: T1, amylin receptor (nucleus accumbens membranes prepared from rat brain) (rat), P32214
T1 chain 1: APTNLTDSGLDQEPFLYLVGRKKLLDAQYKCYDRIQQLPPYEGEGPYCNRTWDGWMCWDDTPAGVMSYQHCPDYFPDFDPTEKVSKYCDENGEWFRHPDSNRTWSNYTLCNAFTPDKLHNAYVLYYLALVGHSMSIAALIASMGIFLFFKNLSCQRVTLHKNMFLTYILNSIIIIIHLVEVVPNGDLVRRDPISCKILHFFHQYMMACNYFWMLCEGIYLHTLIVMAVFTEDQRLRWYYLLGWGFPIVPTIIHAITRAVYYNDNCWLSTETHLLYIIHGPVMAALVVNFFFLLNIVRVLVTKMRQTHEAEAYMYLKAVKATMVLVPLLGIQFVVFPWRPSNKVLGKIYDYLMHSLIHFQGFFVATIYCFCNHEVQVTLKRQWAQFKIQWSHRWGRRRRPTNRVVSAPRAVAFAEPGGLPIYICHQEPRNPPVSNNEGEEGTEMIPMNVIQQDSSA
T1 chain 2: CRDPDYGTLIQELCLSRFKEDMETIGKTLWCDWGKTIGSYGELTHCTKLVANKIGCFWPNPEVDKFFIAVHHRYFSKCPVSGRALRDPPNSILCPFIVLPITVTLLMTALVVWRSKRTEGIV
Assay: radioligand displacement, 125I-rat amylin, rat nucleus accumbens membranes

IC50: 100 nM
Binder: CGNLSTCMLGTYTQDFNKFHTFPQTAIGVGAP (modifications not checked) [r/h Calcitonin]
